# According to US20150023971A1:
# Columns and labels:
# [1] = molecular target: T1, …; test: SPOT length analysis, dot 27, anti-histidine detection
# T1 sequence (peptide): SDFAKNFVQT
# [2] = molecular target: T2, RSSDFAK; test: SPOT length analysis, dot 49, HRP-S-protein detection
# T2 sequence (peptide): RSSDFAK
# [3] = molecular target: T3, AKNF; test: SPOT length analysis, dot 87, HRP-S-protein detection
# T3 sequence (peptide): AKNF
# [4] = molecular target: T4, FVQT; test: SPOT length analysis, dot 90, anti-histidine detection
# T4 sequence (peptide): FVQT
# [5] = molecular target: T5, SDFAK; test: SPOT length analysis, dot 72, HRP-S-protein detection
# T5 sequence (peptide): SDFAK
# [6] = molecular target: T6, DFAKNFVQ; test: SPOT length analysis, dot 43, HRP-S-protein detection
# T6 sequence (peptide): DFAKNFVQ
# [7] = molecular target: T7, NFVQ; test: SPOT length analysis, dot 89, HRP-S-protein detection
# T7 sequence (peptide): NFVQ
# [8] = molecular target: T8, FAKNFVQT; test: SPOT length analysis, dot 44, HRP-S-protein detection
# T8 sequence (peptide): FAKNFVQT
# [9] = molecular target: T9, …; test: SPOT length analysis, dot 5, anti-histidine detection
# T9 sequence (peptide): IFRSSDFAKNFVQT
# [10] = molecular target: T10, FAKNFV; test: SPOT length analysis, dot 63, HRP-S-protein detection
# T10 sequence (peptide): FAKNFV
# [11] = molecular target: T11, …; test: SPOT length analysis, dot 16, anti-histidine detection
# T11 sequence (peptide): RIFRSSDFAKN
# [12] = molecular target: T12, IFRSS; test: SPOT length analysis, dot 68, anti-histidine detection
# T12 sequence (peptide): IFRSS
# [13] = molecular target: T2, RSSDFAK; test: SPOT length analysis, dot 49, anti-histidine detection
# [14] = molecular target: T13, IFRSSD; test: SPOT length analysis, dot 57, anti-histidine detection
# T13 sequence (peptide): IFRSSD
# [15] = molecular target: T14, NFVQT; test: SPOT length analysis, dot 77, anti-histidine detection
# T14 sequence (peptide): NFVQT
# [16] = molecular target: T15, …; test: SPOT length analysis, dot 31, HRP-S-protein detection
# T15 sequence (peptide): FRSSDFAKN
# [17] = molecular target: T14, NFVQT; test: SPOT length analysis, dot 77, HRP-S-protein detection
# [18] = molecular target: T10, FAKNFV; test: SPOT length analysis, dot 63, anti-histidine detection
# [19] = molecular target: T16, …; test: SPOT length analysis, dot 24, anti-histidine detection
# T16 sequence (peptide): FRSSDFAKNF
# [20] = molecular target: T17, …; test: SPOT length analysis, dot 8, HRP-S-protein detection
# T17 sequence (peptide): IFRSSDFAKNFVQ
# [21] = molecular target: T18, sortilin 4-mer peptide RIFR (length analysis); test: SPOT length analysis, dot 79, anti-histidine detection
# T18 sequence (peptide, C-terminus anchored to the cellulose membrane through a beta-alanine linker): RIFR
# [22] = molecular target: T19, SDFAKN; test: SPOT length analysis, dot 61, HRP-S-protein detection
# T19 sequence (peptide): SDFAKN
# [23] = molecular target: T20, …; test: SPOT length analysis, dot 3, HRP-S-protein detection
# T20 sequence (peptide): IFRSSDFAKNFVQTD
# [24] = molecular target: T21, …; test: SPOT length analysis, dot 22, anti-histidine detection
# T21 sequence (peptide): RIFRSSDFAK
# [25] = molecular target: T22, AKNFVQ; test: SPOT length analysis, dot 64, anti-histidine detection
# T22 sequence (peptide): AKNFVQ
# [26] = molecular target: T6, DFAKNFVQ; test: SPOT length analysis, dot 43, anti-histidine detection
# [27] = molecular target: T23, …; test: SPOT length analysis, dot 21, anti-histidine detection
# T23 sequence (peptide): SDFAKNFVQTD
# [28] = molecular target: T24, …; test: SPOT length analysis, dot 34, HRP-S-protein detection
# T24 sequence (peptide): SDFAKNFVQ
# [29] = molecular target: T25, FVQTD; test: SPOT length analysis, dot 78, HRP-S-protein detection
# T25 sequence (peptide): FVQTD
# [30] = molecular target: T26, …; test: SPOT length analysis, dot 19, HRP-S-protein detection
# T26 sequence (peptide): RSSDFAKNFVQ
# [31] = molecular target: T27, SDFAKNFV; test: SPOT length analysis, dot 42, anti-histidine detection
# T27 sequence (peptide): SDFAKNFV
# [32] = molecular target: T28, KNFV; test: SPOT length analysis, dot 88, HRP-S-protein detection
# T28 sequence (peptide): KNFV
# [33] = molecular target: T9, …; test: SPOT length analysis, dot 5, HRP-S-protein detection
# [34] = molecular target: T29, SSDFAKNF; test: SPOT length analysis, dot 41, anti-histidine detection
# T29 sequence (peptide): SSDFAKNF
# [35] = molecular target: T30, FAKN; test: SPOT length analysis, dot 86, HRP-S-protein detection
# T30 sequence (peptide): FAKN
# [36] = molecular target: T31, …; test: SPOT length analysis, dot 35, HRP-S-protein detection
# T31 sequence (peptide): DFAKNFVQT
# [37] = molecular target: T32, sortilin peptide RIFRSSDF on SPOT membrane; test: SPOT length analysis, dot 37, anti-histidine detection
# T32 sequence (peptide, C-terminus anchored to the cellulose membrane through a beta-alanine linker): RIFRSSDF
# [38] = molecular target: T16, …; test: SPOT length analysis, dot 24, HRP-S-protein detection
# [39] = molecular target: T33, SSDFAKN; test: SPOT length analysis, dot 50, anti-histidine detection
# T33 sequence (peptide): SSDFAKN
# [40] = molecular target: T27, SDFAKNFV; test: SPOT length analysis, dot 42, HRP-S-protein detection
# [41] = molecular target: T34, FAKNFVQ; test: SPOT length analysis, dot 53, anti-histidine detection
# T34 sequence (peptide): FAKNFVQ
# [42] = molecular target: T35, …; test: SPOT length analysis, dot 14, anti-histidine detection
# T35 sequence (peptide): RSSDFAKNFVQT
# [43] = molecular target: T36, …; test: SPOT length analysis, dot 23, anti-histidine detection
# T36 sequence (peptide): IFRSSDFAKN
# [44] = molecular target: T22, AKNFVQ; test: SPOT length analysis, dot 64, HRP-S-protein detection
# [45] = molecular target: T37, SSDFAK; test: SPOT length analysis, dot 60, anti-histidine detection
# T37 sequence (peptide): SSDFAK
# [46] = molecular target: T38, DFAKNFV; test: SPOT length analysis, dot 52, HRP-S-protein detection
# T38 sequence (peptide): DFAKNFV
# [47] = molecular target: T39, RSSDFAKN; test: SPOT length analysis, dot 40, HRP-S-protein detection
# T39 sequence (peptide): RSSDFAKN
# [48] = molecular target: T40, …; test: SPOT length analysis, dot 33, HRP-S-protein detection
# T40 sequence (peptide): SSDFAKNFV
binder,measurement,setting,value
"recombinant his-S-tagged pro-domain of human BDNF (residues Ala1-Arg110), from pET-30 Xa/LIC, E. coli (protein, not shown: small tags and cut ends) APMKEANIRGQGGLAYPGVRTHGTLESVNGPKAGSGLTSLADTFEHVIEELLDEDQKVRPNEENNKDADLYTSRVMLSSQVPLEPPLLFLLEEYKNYLDAANMSMRVRR",BLU His,[1],17500 BLU
same,BLU Sprotein,[2],16400 BLU
same,BLU Sprotein,[3],13700 BLU
same,BLU His,[4],15600 BLU
same,BLU Sprotein,[5],14800 BLU
same,BLU Sprotein,[6],14700 BLU
same,BLU Sprotein,[7],13400 BLU
same,BLU Sprotein,[8],23600 BLU
same,BLU His,[9],53400 BLU
same,BLU Sprotein,[10],29600 BLU
same,BLU His,[11],53000 BLU
same,BLU His,[12],25300 BLU
same,BLU His,[13],17300 BLU
same,BLU His,[14],17900 BLU
same,BLU His,[15],17300 BLU
same,BLU Sprotein,[16],20300 BLU
same,BLU Sprotein,[17],15600 BLU
same,BLU His,[18],142000 BLU
same,BLU His,[19],20100 BLU
same,BLU Sprotein,[20],126000 BLU
same,BLU His,[21],127000 BLU
same,BLU Sprotein,[22],15600 BLU
same,BLU Sprotein,[23],76200 BLU
same,BLU His,[24],45500 BLU
same,BLU His,[25],15600 BLU
same,BLU His,[26],15500 BLU
same,BLU His,[27],15700 BLU
same,BLU Sprotein,[28],18900 BLU
same,BLU Sprotein,[29],15100 BLU
same,BLU Sprotein,[30],22400 BLU
same,BLU His,[31],16300 BLU
same,BLU Sprotein,[32],13800 BLU
same,BLU Sprotein,[33],190000 BLU
same,BLU His,[34],15500 BLU
same,BLU Sprotein,[35],13700 BLU
same,BLU Sprotein,[36],19500 BLU
same,BLU His,[37],116000 BLU
same,BLU Sprotein,[38],70400 BLU
same,BLU His,[39],16700 BLU
same,BLU Sprotein,[40],15500 BLU
same,BLU His,[41],69600 BLU
same,BLU His,[42],24700 BLU
same,BLU His,[43],19700 BLU
same,BLU Sprotein,[44],14100 BLU
same,BLU His,[45],16100 BLU
same,BLU Sprotein,[46],17400 BLU
same,BLU Sprotein,[47],17200 BLU
same,BLU Sprotein,[48],19000 BLU
